Measurements: patent US20220002363A1, “COMPOSITIONS AND METHODS FOR TREATING PULMONARY DISEASE” (United States Government As Represented By The Department …, priority 2020, published 2022)
Numbering of substitutions follows the chain as printed. Read-outs that look alike come from different tables or passages of the source.

Columns and labels:
WT-sFasL [1] = target: T1, WT-sFasL (Homo sapiens, UniProt P48023); experiment: Attenuation of WT-sFasL-induced caspase 3/7 activity in primary human small airway epithelial cells (SAEC); assay type: cell-based; conditions: for inhibitory effect on ability of WT-sFasL to induce caspase 3-7 activity: at higher molar ratios than in Jurkat
T1 construct: made in house
T1 sequence (P48023 103-281): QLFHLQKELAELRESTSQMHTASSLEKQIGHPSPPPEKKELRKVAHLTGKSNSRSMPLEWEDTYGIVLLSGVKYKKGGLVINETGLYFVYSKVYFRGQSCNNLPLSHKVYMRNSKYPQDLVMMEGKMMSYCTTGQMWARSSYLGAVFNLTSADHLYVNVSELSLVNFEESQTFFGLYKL
Procedure: (§1) FIGS. 2A-D show the mut-sFasL has inhibitory properties. Highly Fas-sensitive Jurkat cells (FIG. 2A), primary human lung small airway epithelial cells (SAEC, FIG. 2B) or murine lung epithelial cells (LA4, FIG. 2D) were incubated with serial dilutions of mutated FasL, (mut sFasL). […] As a confirmatory test, the experiment was repeated using SAEC and an annexin-V translocation assay (FIG. 2C). WT=wild type (no mutant). […] Each dot represents individual data; lines represent means±SD. *=P<0.05; **=P<0.01, ***P<0.001 when compared to WT. One way ANOVA with SIdak's post hoc analysis.
Small airway epithelial cells (SAEC) are primary human cells isolated from the 1-mm bronchiole area of normal human lung tissue, and were purchased from Lonza (Walkersville, Md., catalogue number CC-2547, lot number 0000669507). Cells used came from a single donor and confirmed mycoplasma-free by the vendor. Cells were grown at 37° C., 5% CO2 in small airway epithelial basal medium (SAGM, Lonza, Cat #CC-3119 CC-3119) supplemented with SAGM SingleQuots (Lonza, catalogue number CC-4124), and used between passages 2 and 4.
(§2) Measurements of apoptotic cascade activation. Apoptotic cascade activation was assessed by determining caspase 3/7 activity and Annexin V externalization. Caspase-3/7 activity was measured using a commercial substrate (Caspase-Glo 3/7 Assay, Promega, Madison, Wis., Cat #G8090) following manufacturer's instructions. Annexin V was measured with a luminescent commercial assay that allows for measurement of annexin V externalization in adherent cells (RealTime-Glo Annexin V assay, Promega, Madison, Wis., Cat #JA1011). Luminescence was measured with a Synergy H4 Microplate Reader (BioTek, Winooski, Vt.).
The mut-sFasL attenuates the activity of WT-sFasL. Then, the caspase 3/7 activity of Jurkat cells incubated with different molar ratios of WT and mut-sFasL was investigated. […] The molar mixtures on primary human small airway epithelial cells (SAEC) were tested. These cells are commercially isolated from the distal airways of human lungs. […]

WT-sFasL [2] = target: T1, WT-sFasL; experiment: Attenuation of WT-sFasL-induced caspase 3/7 activity in murine lung epithelial cells (LA4); assay type: cell-based, mouse
Procedure: as §1
Mouse lung epithelial LA-4 cells were obtained from ATCC (catalogue number CCL-196, lot number 3404534). This cell line is derived from a A/He mouse lung adenoma (Stoner G, et al. Cancer Res. 1975; 35(8):2177-85). […]
as §2, with “Vt.). […]” for “Vt.).”

inhibitory effect on ability of WT-sFasL to induce caspase 3-7 activity (WT-sFasL [1]): inhibitory effect
B1: mut-sFasL: mutant sFasL molecule in which 8 charged amino acids in the 26 amino acid stalk region were changed to alanine (protein)
chain: T1 sequence (P48023 103-281) with H4A, K7A, E8A, E11A, R13A, E14A, H20A, E26A
caspase 3/7 activity (WT-sFasL [1]; WT:mut sFasL molar ratios of 1:27 and 1:81): significantly reduced caspase 3/7 activity
inhibitory effect on ability of WT-sFasL to induce caspase 3-7 activity (WT-sFasL [1]; listed as 8-mutant protein): an inhibitory effect of the 8-mutant protein was detected
inhibition of WT-sFasL-induced caspase 3-7 activity (WT-sFasL [2]): inhibited the ability of WT-sFasL to induce caspase 3-7 activity
inhibition of WT-sFasL-induced caspase 3-7 activity (WT-sFasL [2]; listed as 8-mutant protein): an inhibitory effect of the 8-mutant protein was detected
